Data published in PMC2989778.

Biological target: hCD40–BAFF-R_(His159-Tyr) chimera (human | mouse) (UniProt P25942)
Assay: co-IP

B1: TRAF3 (mouse, endogenous) (natural protein)
chain: MESSKKMDAAGTLQPNPPLKLQPDRGAGSVLVPEQGGYKEKFVKTVEDKYKCEKCRLVLCNPKQTECGHRFCESCMAALLSSSSPKCTACQESIIKDKVFKDNCCKREILALQVYCRNEGRGCAEQLTLGHLLVHLKNECQFEELPCLRADCKEKVLRKDLRDHVEKACKYREATCSHCKSQVPMIKLQKHEDTDCPCVVVSCPHKCSVQTLLRSELSAHLSECVNAPSTCSFKRYGCVFQGTNQQIKAHEASSAVQHVNLLKEWSNSLEKKVSLLQNESVEKNKSIQSLHNQICSFEIEIERQKEMLRNNESKILHLQRVIDSQAEKLKELDKEIRPFRQNWEEADSMKSSVESLQNRVTELESVDKSAGQAARNTGLLESQLSRHDQMLSVHDIRLADMDLRFQVLETASYNGVLIWKIRDYKRRKQEAVMGKTLSLYSQPFYTGYFGYKMCARVYLNGDGMGKGTHLSLFFVIMRGEYDALLPWPFKQKVTLMLMDQGSSRRHLGDAFKPDPNSSSFKKPTGEMNIASGCPVFVAQTVLENGTYIKDDTIFIKVIVDTSDLPDP
**Q.** B1 was tested. Which fold increase in recruitment against hCD40–BAFF-RWT (60 min) did it give?
**A.** The fold increase in recruitment against hCD40–BAFF-RWT (60 min) was 4 fold.

B2: TRAF2 (mouse, endogenous) (natural protein)
chain: MAAASVTSPGSLELLQPGFSKTLLGTRLEAKYLCSACKNILRRPFQAQCGHRYCSFCLTSILSSGPQNCAACVYEGLYEEGISILESSSAFPDNAARREVESLPAVCPNDGCTWKGTLKEYESCHEGLCPFLLTECPACKGLVRLSEKEHHTEQECPKRSLSCQHCRAPCSHVDLEVHYEVCPKFPLTCDGCGKKKIPRETFQDHVRACSKCRVLCRFHTVGCSEMVETENLQDHELQRLREHLALLLSSFLEAQASPGTLNQVGPELLQRCQILEQKIATFENIVCVLNREVERVAVTAEACSRQHRLDQDKIEALSNKVQQLERSIGLKDLAMADLEQKVSELEVSTYDGVFIWKISDFTRKRQEAVAGRTPAIFSPAFYTSRYGYKMCLRVYLNGDGTGRGTHLSLFFVVMKGPNDALLQWPFNQKVTLMLLDHNNREHVIDAFRPDVTSSSFQRPVSDMNIASGCPLFCPVSKMEAKNSYVRDDAIFIKAIVDLTGL
**Q.** With B2 as the binder, how does the fold increase in recruitment against hCD40–BAFF-RWT (60 min) read?
**A.** The fold increase in recruitment against hCD40–BAFF-RWT (60 min) was 5 fold.
